Source: PMC3623789

Experiment: confocal imaging, co-localisation with Na+/K+-ATPase, HEK293
Conditions: glycan lost; control: wild-type 3xFLAG-rPRG3

B1: rPRG3 (plasticity-related gene 3, LPR1): N163Q (protein)
parent chain: MAVENNTQRSYSIIPCFIFVELVIMAGTVLLAYYFECTDTFQVHIQGFFCQDGDLMKPYPGTEEESFISPLVLYCVLAATPTAIIFIGEISMYFIKSTRESLIAEEKMILTGDCCYLSPLLRRIVRFIGVFAFGLFATDIFVNAGQVVTGHLTPYFLTVCQPNYTSTDCRAHHQFINNGNICTGDLEVIEKARRSFPSKHAALSIYSALYATMYITSTIKTKSSRLAKPVLCLGDLCTAFLTGLNRVSEYRNHCSDVIAGFILGTAVALFLGMCVVHNFKGTQGSASKPKPEDPRGVPLMAFPRIESPLETLSAQNHSASMTEVT
- localisation_or_trafficking: abolishes
